Experimental data: publication PMC10686051 (Nature structural & molecular biology, 2023)

Target: the molecule itself
Assay: MST

B1: MRE11 structured-domain (1–411 aa) (domain or fragment, UniProt P49959 1-411, looked up)
chain: MSTADALDDENTFKILVATDIHLGFMEKDAVRGNDTFVTLDEILRLAQENEVDFILLGGDLFHENKPSRKTLHTCLELLRKYCMGDRPVQFEILSDQSVNFGFSKFPWVNYQDGNLNISIPVFSIHGNHDDPTGADALCALDILSCAGFVNHFGRSMSVEKIDISPVLLQKGSTKIALYGLGSIPDERLYRMFVNKKVTMLRPKEDENSWFNLFVIHQNRSKHGSTNFIPEQFLDDFIDLVIWGHEHECKIAPTKNEQQLFYISQPGSSVVTSLSPGEAVKKHVGLLRIKGRKMNMHKIPLHTVRQFFMEDIVLANHPDIFNPDNPKVTQAIQSFCLEKIEEMLENAERERLGNSHQPEKPLVRLRVDYSGGFEPFSVLRFSQKFVDRVANPKDIIHFFRHREQKEKTGEE
modifications: amine-reactive AlexaFluor-647 dye on the labeled copy; the titrated copy is unlabeled
Protein B1 has a Kd of 0.37 ± 0.08 µM.
